We go through one substance from patent US20200299415A1.

Assay [1] addresses cell surface receptors in membranes prepared from SH-SY5Y cells. Kind of assay: radioligand saturation binding on SH-SY5Y cell membranes; lower end of range.
The target is the same in assay [2]. Kind of assay: radioligand saturation binding on SH-SY5Y cell membranes; upper end of printed range.
Assay [3] shares this target. Nature of the assay: radioligand saturation binding on SH-SY5Y cell membranes, filtration, nonlinear regression; lower end of range.
Assay [4] has the same target. Kind of assay: radioligand saturation binding on SH-SY5Y cell membranes, filtration, nonlinear regression; upper end of printed range.

By Kd is commonly meant the constant that tells how readily two partners part at equilibrium. Read a low Kd as higher affinity.

With “[3H][Dmt1]DALDA (2',6'-Dmt-D-Arg-Phe-Lys-NH2, tritiated) (peptide)”, the Bmax (fmol/mg protein) was 88 in assay [1] and 104 in assay [2]. Moreover, the values for the Kd in assay [3] and in assay [4] were 0.087 nM and 0.149 nM, respectively.
